Numbering of substitutions follows the chain as printed. Names and notes keep the numbering of the source.

The target in assay [1] is T1, human alpha-synuclein protein, monomeric (human, UniProt P37840 1-140). Briefly: SPR (Biacore).
Assay [2] concerns the target T1, human alpha-synuclein protein, monomeric. Briefly: SPR (Biacore), single-cycle kinetics, alpha-synuclein monomer. (In SPR one partner is held on a chip, and binding of the other changes the refractive index at the surface.)
The target is the same in assay [3]. Briefly: SPR (Biacore), full-cycle kinetics: IgG captured on anti-human Fc CM5 chip, alpha-synuclein monomer injected, 1:1 Langmuir fit.
Assay [4] deals with human alpha-synuclein protein (full-length; monomer/oligomer form not specified at the place) (human, UniProt P37840 1-140). Briefly: SPR (Biacore T200), protein captured by anti-human-Fc on a CM5 chip, recombinant alpha-synuclein injected (Table 14).

B1: Clone 1F06 (antibody, V domains shown)
VH: EVKLVESGGGLVKPGGSLKLSCAASGFIFSDYGMHWVRQAPEKGLEWIAFISSGNNTVYYADTVKGRFTISRDSAKKTLFLQMTSLRSEDTAMYYCVRHSNFCDYWGQGTSVTVSS
VL: DVQMTQTPLSLPVSLGDQASISCRSSQSIVHSNGNTYLEWYLQKPGQSPKLLIYKVSNRFSGVPDRFSGSGSGTDFTLKISRVEAEDLGVYYCFQGSHVPPTFGAGTKLELK
notes: also called antibody 1F06
For B1, in assay [1], the binding result is “binds”.

B2: Clone 1F06 C99M (antibody, human IgG1, V domains shown)
VH: B1 VH with C103M
VL: B1 VL
notes: Human IgG1/kappa chimeric format like 1F06; C99 (Kabat, CDR-H3) is replaced by Met; also called 1F06 C99M variant; C99M variant of 1F06
Regarding B2, the binding result in assay [2] is “binds”.

B3: Clone 2F10 (antibody, human IgG1, V domains shown)
VH: EVKLQESGPGLVKPSQSLSLTCSVTGYSITSGYYWNWIRQFPGNKLEWLGYISDDGRNNYNPSLKNRISITRDTSKNQLFLKLNSVTTEDTATYYCVRGDYGPWGQGTTVTVSS
VL: DVVMTQTPLTLSVTIGQPAFISCKSNQSLLDYDGETYLNWLFLRPGQSPKRLIYLVSKQDSGVPDRFTGIGSGTDFTLKINRVEAEDLGIYYCWQGTHFPQTFGGGTKLELK
notes: Biacore: mouse variable regions with human IgG1 and kappa constant regions; A mouse IgG version was also used elsewhere
In assay [3], B3 yielded a Kd of 6.7 nM, a koff of 0.00067 s⁻¹ and an association rate constant (kon) of 100000 M⁻¹ s⁻¹.

B4: Clone 2F09 (antibody, V domains shown)
VH: EVHVKQSGPELVEPGASVKISCKTSGYTFASYAISWVKQRTGQGLEWIGEIYPGSGDTYYDEKFKGKATLTADKSSSTAYMELRSLTSEDSAVYFCASDYDAYWGQGTLVTVSA
VL: DIVLTQTPLSLPVSLGDQASISCRSSQSLVHRNGNTYLHWYLQKPGQSPKLLIYRISNRFSGVPDRFSGSGSGTDFTLKISRVEAEDLGVYFCSQSTHVPLTFGAGTKLEIK
notes: Mouse variable regions with human IgG1 and kappa constant regions
B4: in assay [3], the Kd is 1.63 nM, the koff amounted to 0.0015 s⁻¹ and the kon was 920000 M⁻¹ s⁻¹.

B5: Clone 3C02 (antibody, human IgG1, V domains shown)
VH: EVKLLESGGGLVQPGGSLKLSCAASGFTFSDYGMHWVRQAPEKGLEWIAYISRGSSAIYYADAVKGRFTISRDNAKNTLFLQMTSLRSEDTAMYYCRSPLRYFDVWGTGTSVTVSS
VL: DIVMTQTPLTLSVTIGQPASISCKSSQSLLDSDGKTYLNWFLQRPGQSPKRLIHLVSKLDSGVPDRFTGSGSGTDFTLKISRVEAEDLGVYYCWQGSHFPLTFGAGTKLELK
notes: as for B4
In assay [3], B5 showed a Kd of 29.3 nM, a dissociation rate constant (koff) of 0.0012 s⁻¹ and a kon of 41000 M⁻¹ s⁻¹.

B6: Clone 2D02 (antibody, V domains shown)
VH: EVKLQESGPGLVKPSQSLSLTCSVTGYSITSGYYWNWIRQFPGNKLEWLGFISSDGNSDYNPSLKNRISVTRDTSKNQFFLQLNSVTTEDTATYYCLRGDVDWGQGTTLTVSS
VL: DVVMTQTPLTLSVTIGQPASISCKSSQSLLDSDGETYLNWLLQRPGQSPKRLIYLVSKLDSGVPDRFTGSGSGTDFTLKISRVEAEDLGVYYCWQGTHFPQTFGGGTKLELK
notes: Biacore: mouse variable regions with human IgG1 and kappa constant regions
As to B6, in assay [3], binding was characterised by a dissociation constant (Kd) of 6.38 nM, the koff is 0.0003 s⁻¹ and the kon was 47000 M⁻¹ s⁻¹.

B7: 2F09/35.21.17.2 (bispecific antibody, human IgG1, kappa)
heavy 1: EVHVKQSGPELVEPGASVKISCKTSGYTFASYAISWVKQRTGQGLEWIGEIYPGSGDTYYDEKFKGKATLTADKSSSTAYMELRSLTSEDSAVYFCASDYDAYWGQGTLVTVSAASTKGPSVFPLAPSSKSTSGGTAALGCLVKDYFPEPVTVSWNSGALTSGVHTFPAVLQSSGLYSLSSVVTVPSSSLGTQTYICNVNHKPSNTKVDKKVEPKSCDKTHTCPPCPAPELLGGPSVFLFPPKPKDTLMISRTPEVTCVVVDVSHEDPEVKFNWYVDGVEVHNAKTKPREEQYNSTYRVVSVLTVLHQDWLNGKEYKCKVSNKALPAPIEKTISKAKGQPREPQVYTLPPSRDELTKNQVSLWCLVKGFYPSDIAVLWESYGTEWASYKTTPPVLDSDGSFFLYSKLTVTKEEWQQGFVFSCSVMHEALHNHYTQKSLSLSPGK
heavy 2: not shown
light: DIVLTQTPLSLPVSLGDQASISCRSSQSLVHRNGNTYLHWYLQKPGQSPKLLIYRISNRFSGVPDRFSGSGSGTDFTLKISRVEAEDLGVYFCSQSTHVPLTFGAGTKLEIKRTVAAPSVFIFPPSDEQLKSGTASVVCLLNNFYPREAKVQWKVDNALQSGNSQESVTEQDSKDSTYSLSSTLTLSKADYEKHKVYACEVTHQGLSSPVTKSFNRGEC
notes: Knob:hole:light chain were co-transfected 1:1:2
B7: the binding result in assay [4] is given as “binds”.

B8: 1F4/35.21.17.2 (bispecific antibody, human IgG1, kappa)
heavy 1: EVQLVESGGGLVQPKGSLKLSCAASGFSFNTYAMNWVRQAPGKGLEWVARIRTKSNNYATYYADSVKDRFTISRDDSESKFHLQMNNLKTEDTAIYYCVRQGIDFYAMDYWGQGTSVTVSSASTKGPSVFPLAPSSKSTSGGTAALGCLVKDYFPEPVTVSWNSGALTSGVHTFPAVLQSSGLYSLSSVVTVPSSSLGTQTYICNVNHKPSNTKVDKKVEPKSCDKTHTCPPCPAPELLGGPSVFLFPPKPKDTLMISRTPEVTCVVVDVSHEDPEVKFNWYVDGVEVHNAKTKPREEQYNSTYRVVSVLTVLHQDWLNGKEYKCKVSNKALPAPIEKTISKAKGQPREPQVYTLPPSRDELTKNQVSLWCLVKGFYPSDIAVLWESYGTEWASYKTTPPVLDSDGSFFLYSKLTVTKEEWQQGFVFSCSVMHEALHNHYTQKSLSLSPGK
heavy 2: not shown
light: DVLMTQSPLSLSVSLGDQASISCRSSRDIVHSNGNTYLEWYLQKPGQSPKLLIYKVSNRFSGVPDRFSGSGSGTDFTLKISRVEAEDLGVYYCFQGTLIPLTFGAGTKLELKRTVAAPSVFIFPPSDEQLKSGTASVVCLLNNFYPREAKVQWKVDNALQSGNSQESVTEQDSKDSTYSLSSTLTLSKADYEKHKVYACEVTHQGLSSPVTKSFNRGEC
As to B8, in assay [4], the binding result was “binds”.

In general, Kd refers to the constant that tells how readily two partners part at equilibrium. A high value points to lower affinity. A word on the koff: it is the first-order rate constant of dissociation. Low values mean slow dissociation, high ones fast dissociation. The term kon denotes the rate constant with which the complex forms. A higher kon goes with fast association.

The record behind these values is patent WO2018237338A1 (dated 2018).
